According to patent US20260109776A1 (Amgen, published 2026):
Like-named read-outs stand apart in the source and are kept apart here. One block for each binder: values may come before it.

Tests used:
[1] = biological target: T1, huMSLN(296-598) (human, UniProt Q13421 296-598); test: Octet
T1 construct: also called soluble human mesothelin
Protocol: (§1) A panel of mesothelin×CD40 bispecific antibodies were generated in the IgG-scFv format (Table 13) and evaluated for binding to soluble forms of human and cynomolgus monkey CD40 and human and cynomolgus monkey mesothelin using the Octet assay (Table 14). Association rate (Kon), disassociation rate (Kdis), and equilibrium binding constant (KD) were calculated. […] These bispecific antibodies were next evaluated for their ability to induce mesothelin-dependent activation of human B cells. CHO cells expressing human mesothelin were seeded into a 96 well plate. The next day varying concentrations of the mesothelin×CD40 IgG-scFv antibodies were added to the wells along with purified human B cells and the plates were incubated for an additional 48 hours. Upregulation of CD86, a marker of CD40-mediated B cell activation, was quantified on B cells by flow cytometry.

[2] = biological target: T2, cynoCD40(1-193) (cynomolgus monkey, UniProt P25942 21-193 (human entry)); test: Octet
T2 construct: also called soluble cynomolgus monkey CD40
T2 chain: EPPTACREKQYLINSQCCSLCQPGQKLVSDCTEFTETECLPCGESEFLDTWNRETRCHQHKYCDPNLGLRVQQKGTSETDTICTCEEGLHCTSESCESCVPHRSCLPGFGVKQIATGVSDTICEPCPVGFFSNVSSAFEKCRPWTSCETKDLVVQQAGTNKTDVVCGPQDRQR
Protocol: as §1

[3] = biological target: T3, huCD40(1-193) (human, UniProt P25942 21-193); test: Octet
T3 construct: also called soluble human CD40
Protocol: as §1

[4] = biological target: T4, cynoMSLN(296-598) (cynomolgus monkey); test: Octet
T4 chain: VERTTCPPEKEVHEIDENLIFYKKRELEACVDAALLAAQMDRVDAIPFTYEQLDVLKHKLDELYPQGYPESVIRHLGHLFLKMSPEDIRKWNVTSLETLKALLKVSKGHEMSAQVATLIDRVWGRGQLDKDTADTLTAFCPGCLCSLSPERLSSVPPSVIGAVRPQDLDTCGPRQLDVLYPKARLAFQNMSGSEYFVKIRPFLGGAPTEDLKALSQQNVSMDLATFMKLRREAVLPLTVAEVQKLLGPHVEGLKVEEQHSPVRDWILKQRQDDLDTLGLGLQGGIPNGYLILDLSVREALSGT
Protocol: as §1

[5] = biological target: human CD40 (human, UniProt P25942 21-277); test: cell-based or functional assay
[6] = biological target: T5, human CD40 on cells (human, UniProt P25942 21-277); test: cell-based or functional assay
[7] = biological target: T5, human CD40 on cells; test: flow cytometry, labelled CD40L on CD40-293T cells, antibody at 20 ug/ml
Protocol: (§2) Percent ligand binding inhibition was calculated as [(CD40L binding gMFI in the absence of anti-CD40)−(CD40L binding gMFI in the presence of anti-CD40)]/(CD40L binding gMFI in the absence of anti-CD40). gMFI: geometric mean fluorescent intensity. All anti-CD40 antibodies show minimal effects on the ability of CD40L to bind to the CD40 receptor (Table 7).
Target sequence in this assay (P25942 21-277 limits assumed): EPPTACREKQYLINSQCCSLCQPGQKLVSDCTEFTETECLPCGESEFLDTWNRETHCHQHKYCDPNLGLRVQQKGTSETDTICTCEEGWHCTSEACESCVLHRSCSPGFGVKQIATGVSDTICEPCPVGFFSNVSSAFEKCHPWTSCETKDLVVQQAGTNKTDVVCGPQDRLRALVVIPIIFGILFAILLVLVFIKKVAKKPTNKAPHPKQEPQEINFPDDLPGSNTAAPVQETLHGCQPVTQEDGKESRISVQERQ

[8] = biological target: human CD40 (human, UniProt P25942 21-193, limits assumed); test: Octet
Protocol: (§3) The binding affinity of anti-human CD40 antibodies to human and cynomolgus monkey CD40 was measured by Octet assay (Table 3), quantifying association rate (Kon), disassociation rate (Kdis), and equilibrium binding constant (KD). Cross-reactivity of anti-CD40 antibodies to related TNF receptor superfamily (TNFRSF) members was evaluated by expressing human TNFR1, TNFR2, TNFR10, or TNFR14 on HEK293 cells by transient transfection of expression vectors encoding these genes. Binding of indicated anti-human CD40 antibody to these transfected cells was determined by flow cytometry. […] Cross-reactivity of anti-CD40 antibodies to cynomolgus monkey and mouse CD40 was evaluated by expressing cynomolgus monkey or mouse CD40 on HEK293 cells by transient transfection of expression vectors encoding these genes. Binding of indicated anti-human CD40 antibody to cells overexpressing cynomolgus monkey and mouse CD40 was determined by flow cytometry.

[9] = biological target: T6, human TNFR14 (human, UniProt Q92956 39-283); test: flow cytometry, HEK293 transfectants
T6 construct: whole, on cells
T6 sequence (looked up): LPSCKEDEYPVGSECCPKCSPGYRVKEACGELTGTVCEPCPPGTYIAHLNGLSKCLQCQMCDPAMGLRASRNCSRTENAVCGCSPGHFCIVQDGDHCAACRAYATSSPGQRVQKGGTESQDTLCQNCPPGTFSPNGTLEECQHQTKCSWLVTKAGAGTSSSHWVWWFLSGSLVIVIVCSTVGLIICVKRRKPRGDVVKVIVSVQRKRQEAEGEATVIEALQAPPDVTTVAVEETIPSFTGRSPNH
Protocol: as §3

[10] = biological target: T7, human TNFR2 (human, UniProt P20333 23-461); test: flow cytometry, HEK293 transfectants
T7 construct: whole, on cells
T7 sequence (looked up): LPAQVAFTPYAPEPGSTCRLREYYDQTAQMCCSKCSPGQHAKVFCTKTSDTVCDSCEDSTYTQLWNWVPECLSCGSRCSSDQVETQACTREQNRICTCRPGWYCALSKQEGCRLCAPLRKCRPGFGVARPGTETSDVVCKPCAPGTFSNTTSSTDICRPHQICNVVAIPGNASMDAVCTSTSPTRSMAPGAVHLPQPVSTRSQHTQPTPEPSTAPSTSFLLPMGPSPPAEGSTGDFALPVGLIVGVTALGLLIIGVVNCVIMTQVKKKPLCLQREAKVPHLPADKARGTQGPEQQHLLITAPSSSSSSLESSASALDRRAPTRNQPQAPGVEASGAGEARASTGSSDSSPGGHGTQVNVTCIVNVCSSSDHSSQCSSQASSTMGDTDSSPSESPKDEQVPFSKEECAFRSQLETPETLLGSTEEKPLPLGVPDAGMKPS
Protocol: as §3

[11] = biological target: T8, human TNFR1 (human, UniProt P19438 30-455); test: flow cytometry, HEK293 transfectants
T8 construct: whole, on cells
T8 sequence (looked up): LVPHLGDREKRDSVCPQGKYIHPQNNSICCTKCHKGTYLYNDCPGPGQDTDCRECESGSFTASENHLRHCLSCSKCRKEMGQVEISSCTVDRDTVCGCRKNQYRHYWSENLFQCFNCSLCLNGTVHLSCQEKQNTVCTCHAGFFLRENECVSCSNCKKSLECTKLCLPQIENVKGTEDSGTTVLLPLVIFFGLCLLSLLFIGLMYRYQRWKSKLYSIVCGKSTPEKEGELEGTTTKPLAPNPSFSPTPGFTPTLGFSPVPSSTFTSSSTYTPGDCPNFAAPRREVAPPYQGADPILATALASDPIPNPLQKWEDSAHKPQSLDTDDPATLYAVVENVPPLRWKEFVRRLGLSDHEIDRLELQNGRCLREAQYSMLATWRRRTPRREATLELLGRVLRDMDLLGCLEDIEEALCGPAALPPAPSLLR
Protocol: as §3

[12] = biological target: T5, human CD40 on cells; test: cell-based or functional assay; remark: listed apart in the source
Target sequence in this assay (P25942 21-277 limits assumed): as the sequence (P25942 21-277 limits assumed) above

[13] = biological target: T6, human TNFR14; test: flow cytometry, HEK293 transfectants vs control cells
Protocol: as §3

[14] = biological target: T9, human TNFR10 (human); test: as above
T9 construct: whole, on cells; Name as printed is ambiguous (TNFRSF10A-D)
Protocol: as §3

[15] = biological target: T7, human TNFR2; test: as above
Protocol: as §3

[16] = biological target: T10, cynomolgus monkey CD40 on cells (cynomolgus monkey, UniProt P25942 21-277 (human entry)); test: as above
T10 construct: also called cyno CD40 on HEK293 cells; CD40 on cynomolgus monkey B cells
T10 chain: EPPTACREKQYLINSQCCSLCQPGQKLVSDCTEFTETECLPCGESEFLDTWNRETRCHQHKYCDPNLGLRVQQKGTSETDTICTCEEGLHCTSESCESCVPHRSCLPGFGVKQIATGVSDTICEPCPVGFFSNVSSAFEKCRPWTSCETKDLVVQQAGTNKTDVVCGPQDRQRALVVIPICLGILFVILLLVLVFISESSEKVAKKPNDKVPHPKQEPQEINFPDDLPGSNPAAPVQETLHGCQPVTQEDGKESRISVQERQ
Protocol: as §3

[17] = biological target: T8, human TNFR1; test: as above
Protocol: as §3

[18] = biological target: T11, mouse CD40 on cells (mouse, UniProt P27512 20-289); test: as above
T11 construct: whole, on cells; also called mouse CD40 on HEK293 cells; CD40 on mouse B cells
T11 sequence (looked up): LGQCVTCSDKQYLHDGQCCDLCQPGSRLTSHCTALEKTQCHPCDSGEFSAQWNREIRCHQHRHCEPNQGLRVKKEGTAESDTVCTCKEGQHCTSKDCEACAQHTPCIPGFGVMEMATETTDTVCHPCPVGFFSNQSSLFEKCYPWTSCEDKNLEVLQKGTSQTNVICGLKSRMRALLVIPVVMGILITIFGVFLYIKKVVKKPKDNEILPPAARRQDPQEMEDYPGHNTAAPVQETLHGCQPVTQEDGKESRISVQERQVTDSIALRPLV
Protocol: as §3

[19] = biological target: T5, human CD40 on cells; test: flow cytometry, labelled CD40L on CD40-293T cells, antibody at 5 ug/ml
Protocol: as §2
Target sequence in this assay (P25942 21-277 limits assumed): as the sequence (P25942 21-277 limits assumed) above

[20] = biological target: T11, mouse CD40 on cells; test: flow cytometry, HEK293 transfectants
[21] = biological target: T5, human CD40 on cells; test: flow cytometry, labelled CD40L on CD40-293T cells, antibody at 2.5 ug/ml
Protocol: as §2
Target sequence in this assay (P25942 21-277 limits assumed): as the sequence (P25942 21-277 limits assumed) above

[22] = biological target: T5, human CD40 on cells; test: flow cytometry, labelled CD40L on CD40-293T cells, antibody at 10 ug/ml
Protocol: as §2
Target sequence in this assay (P25942 21-277 limits assumed): as the sequence (P25942 21-277 limits assumed) above

Sequence of human CD40 (human, UniProt P25942 21-193, limits assumed) (P25942 21-193 limits assumed): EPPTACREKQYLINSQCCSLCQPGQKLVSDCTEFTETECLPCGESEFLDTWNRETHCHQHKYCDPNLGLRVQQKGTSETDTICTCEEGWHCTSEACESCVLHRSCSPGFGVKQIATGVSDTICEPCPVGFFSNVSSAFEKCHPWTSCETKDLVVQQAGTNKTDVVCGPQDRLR
T1 sequence (Q13421 other isoform, or with tags, fused parts or gaps): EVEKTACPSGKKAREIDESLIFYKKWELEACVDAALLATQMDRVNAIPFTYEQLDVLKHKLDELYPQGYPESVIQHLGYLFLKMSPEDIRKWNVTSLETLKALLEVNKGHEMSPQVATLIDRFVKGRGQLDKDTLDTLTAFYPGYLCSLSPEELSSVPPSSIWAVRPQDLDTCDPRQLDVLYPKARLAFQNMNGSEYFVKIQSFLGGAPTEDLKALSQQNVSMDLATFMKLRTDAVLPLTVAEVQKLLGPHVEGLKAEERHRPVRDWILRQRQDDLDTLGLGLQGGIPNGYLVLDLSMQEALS

- Kd [1]: 0.4 nM
- koff [1]: 0.000306 s⁻¹
- kon [1]: 692000 M⁻¹ s⁻¹
- Kd [2]: 1.7 nM
- koff [2]: 0.000407 s⁻¹
- kon [2]: 238000 M⁻¹ s⁻¹
- Kd [3]: 2 nM
- koff [3]: 0.000407 s⁻¹
- kon [3]: 204000 M⁻¹ s⁻¹
- Kd [4]: 5.8 nM
- koff [4]: 0.00199 s⁻¹
- kon [4]: 345000 M⁻¹ s⁻¹
- EC50 (nM), CD86 upregulation on human B cells with huMSLN-CHO cells [5]: 0.00935 nM
B1: 6032-2 (bispecific antibody)
heavy: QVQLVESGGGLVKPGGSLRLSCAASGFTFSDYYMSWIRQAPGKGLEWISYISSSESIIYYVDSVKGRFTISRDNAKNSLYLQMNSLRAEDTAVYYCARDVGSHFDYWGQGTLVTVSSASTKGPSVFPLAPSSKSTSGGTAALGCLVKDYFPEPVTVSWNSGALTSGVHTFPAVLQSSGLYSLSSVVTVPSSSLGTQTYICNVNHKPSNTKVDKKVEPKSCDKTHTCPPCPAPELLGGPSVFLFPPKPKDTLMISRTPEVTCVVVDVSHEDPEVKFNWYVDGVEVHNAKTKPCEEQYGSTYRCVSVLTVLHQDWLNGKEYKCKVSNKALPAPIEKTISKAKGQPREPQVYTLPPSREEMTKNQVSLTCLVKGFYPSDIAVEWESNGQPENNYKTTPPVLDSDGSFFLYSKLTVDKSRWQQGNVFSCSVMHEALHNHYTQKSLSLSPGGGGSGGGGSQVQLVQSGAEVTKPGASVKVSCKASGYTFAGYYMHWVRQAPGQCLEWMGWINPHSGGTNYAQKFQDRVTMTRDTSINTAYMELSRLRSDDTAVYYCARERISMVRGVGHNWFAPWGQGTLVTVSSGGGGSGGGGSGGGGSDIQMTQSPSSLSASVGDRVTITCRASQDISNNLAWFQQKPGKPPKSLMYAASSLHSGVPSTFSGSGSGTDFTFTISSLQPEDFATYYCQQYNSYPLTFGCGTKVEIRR
light: DIQMTQSPSSVSASVGDRVTITCRASQDISRWLAWYQQKPGKAPKLLISAASRLQSGVPSRFSGSGSGTDFTLTISSLQPEDFAIYYCQQAKSFPRTFGQGTKVEIKRTVAAPSVFIFPPSDEQLKSGTASVVCLLNNFYPREAKVQWKVDNALQSGNSQESVTEQDSKDSTYSLSSTLTLSKADYEKHKVYACEVTHQGLSSPVTKSFNRGEC
notes: IgG-scFv: IgG (MSLN) 6F4, scFv (CD40) 29H10

- human B cell proliferation, no crosslinking, EC50 [6]: > 16.7 nM
- human B cell proliferation, no crosslinking, Max Fold Change [6]: 1.35 fold
- human B cell proliferation, with protein G crosslinking, EC50 [6]: 0.344 nM
- human B cell proliferation, with protein G crosslinking, Max Fold Change [6]: 23.2 fold
- Ligand Binding Inhibition (%) [7]: 1%
- Kd [8]: 0.58 nM
- koff [8]: 0.000238 s⁻¹
- kon [8]: 407000 M⁻¹ s⁻¹
- binding result [9]: no binding
- binding result [10]: no binding
- binding result [11]: no binding
- human B cell proliferation, no crosslinking, % Max Activity [12]: 2.3%
- human B cell proliferation, no crosslinking, EC50 [12]: > 13.4 nM
- human B cell proliferation, with protein G crosslinking, % Max Activity [12]: 88.9%
- human B cell proliferation, with protein G crosslinking, EC50 [12]: 0.19 nM
- fold over control (gMFI) [13]: 0.88 fold
- fold over control (gMFI) [14]: 0.89 fold
- fold over control (gMFI) [15]: 0.93 fold
- fold over control (gMFI) [16]: 73 fold
- fold over control (gMFI) [17]: 1.03 fold
- fold over control (gMFI) [18]: 0.9 fold
- Ligand Binding Inhibition (%) [19]: 9%
- binding result [20]: no binding
- Ligand Binding Inhibition (%) [21]: -3%
- Ligand Binding Inhibition (%) [22]: 3%
B2: 33H9 (antibody, IgG4, V domains shown)
VH: QVQLVESGGGVVQPGRSLRLSCAASGFTFSSHGMHWVRQPPGKGLEWVAVIWYDGSNEYYGDSVKGRFTISRDNSKNTLYLQMNSLRVEDTAVYYCTRGGGHWNYEGHYYGMDVWGQGTTVTVSS
VL: QAVPTQPSSLSASPGASASLTCTLRSGINVGSSRIYWYQQKPGSPPQFLLRYTSDSDKLQGSGVPSRFSGSKDASANAGLLLISGLQSEDEADYYCMIWHSSAVVFGGGTKLTVLG
notes: also called 4897-1
